Test results as given in patent publication US9289506B2, “Surface binding of nanoparticle based drug delivery to tissue” (Massachusetts Institute of Technology, priority 2013, dated 2016).

How the values were obtained:
[1] = Intra-articular injection of Avidin or Neutravidin in rat knee joints: penetration, uptake and retention in joint tissues; details: for mean concentration in articular cartilage: rat, i.a. injection
Description: Intra-articular (i.a.) injections of 50 μl of 50 μM Avidin (pI 10.5, 66 kDa, diameter ˜7 nm) or Neutravidin (neutral at pH 7, 60 kDa, diameter ˜7 nm) conjugated with Texas Red (both from Invitrogen, CA) were administered in the right knee joints of healthy 18-20 weeks old Fischer-344 rats (Charles River Laboratories). Following the injection, rat knees were flexed and extended to distribute the injected solute throughout the intra-articular space. Contralateral left knees were used as controls. Avidin injected rats were sacrificed at 4 different time points (6 h, 1 d, 4 d, 7 d) and Neutravidin injected rats were sacrificed after 1 day. The following tissue types were extracted from each joint: articular cartilage removed from the patellar groove, femoral condyle and tibial plateau using a scalpel; medial and lateral menisci; i.a. ligaments (ACL & PCL); patellar and quadriceps tendons; and femoral bone. 6 rats were used per treatment condition for a total of 30 rats. Using a digital caliper (Fisher Scientific), the joint thickness was measured before and after the injection at each time point to check for joint swelling indicating an inflammatory response to the injection.
Tissue samples extracted from the rat joints injected with Avidin-Texas Red (Excitation at 595 nm and emission at 615 nm) and sacrificed at 6 h were imaged using a confocal microscope (OLYMPUS, FluoView FV1000) at 10× magnification by taking Z stacks. Images were taken in X-Y plane, which represents the surface through which Avidin diffused. 3D images were reconstructed using Z stacking (slice thickness˜4.5 μm) and cross-sections in the X-Z plane of these 3D images were taken.
Tissue samples from all treatment conditions were then desorbed in 10×PBS for 48 h in 37° C. incubator to disrupt electrostatic interactions and release Avidin/Neutravidin into the desorption bath. […] At the end of the experiment, tissue samples were removed from the bath, lyophilized and the dry weight was measured. Fluorescence signal from desorption bath was quantified using a plate reader (Synergy HT, BioTek). […] The solute uptake was calculated as the concentration of labeled solute in the tissue samples normalized by tissue dry weight.
The half-life of Avidin was calculated by fitting an exponential curve to the experimental data:
Where, C0 is the initial and C(t) is the final Avidin concentration in tissue after time t and λ is the decay constant.

[2] = One-way diffusion of solutes into cartilage half disks in transport chamber, confocal microscopy imaging; assay type: in vitro ADME, bovine; details: normal cartilage
Description: Solute Types: Two types of 15 nm diameter (MW˜300 kDa) Quantum Dots (QD) were used: (i) positively charged, and (ii) charge-neutral; same concentration. Transport of FITC (MW˜300 Da, diam˜0.9 nm) and dextrans (Dex) conjugated with FITC (Sigma Aldrich) of different MW (˜8 kDa, diam˜4.3 nm; ˜40 kDa, diam˜10 nm) were also investigated.
Transport Studies: A special PMMA transparent transport chamber was designed to allow diffusion of solutes into only one side (superficial zone) of the cartilage disk. The chamber was treated with Casein to block non-specific binding of solutes to chamber surfaces. The equilibrated cartilage disks were then cut into halves and placed in the middle of the ‘slot chambers’ of the fixture. The chamber side facing the superficial zone was filled with ˜45 μl of solute-PBS solution; the other side was filled with 1×PBS alone. […]
Using a scalpel, a slice (100-200 μm thick) was then cut from the center of each disk (FIG. 1B). […] Appropriate filters were chosen to eliminate auto-fluorescence of cartilage at the settings used for imaging. […] To ensure proper image comparison, solute concentrations were chosen such that the FITC concentration in each solution was identical, thereby giving equal fluorescence intensities.

[3] = Non-equilibrium diffusive transport across cartilage disks (transport cell); assay type: in vitro ADME, bovine; details: 400 μm thick disks, 20° C.
Description: Real-time measurement of diffusive transport of Avidin and NeutrAvidin through young bovine cartilage disks (with intact superficial zone) was measured using a diffusion chamber consisting of two compartments as described previously (Garcia et al., Arch Biochem Biophys, 2003). Groups of three cartilage disks (6 mm diameter, 400 μm thick) were clamped by O-rings between the two compartments of the diffusion chamber (with total exposed tissue area for transport of 0.28 cm^2/disk), such that solute transport from the upstream compartment into and across the cartilage disks, simultaneously, could occur only from the superficial zone of the cartilage (schematic shown in the inset of FIG. 14). The compartments were treated with casein to prevent non-specific adsorption of solutes to the chamber surfaces. […] Aliquots were taken from each chamber at different time intervals, and fluorescence was measured using a plate reader.
The compartment volume of 25 ml is approximately 1,000× larger than the volume of the cartilage plugs in the configuration of FIG. 14 (inset). […] This configuration thereby focuses on quantitation of steady state solute flux and assessment of effective solute diffusivity within cartilage. […]
[formula] where δ is the thickness of the cartilage disk (˜400 μm). DEFF for Avidin was calculated to be 3.8×10^−7 cm^2/s. […]

[4] = Dose dependent biological response to Avidin in bovine cartilage explants (viability, sGAG loss, biosynthesis); assay type: cell-based
Description: Briefly, cylindrical cartilage disks (3 mm) were cored using a dermal punch and then sliced to obtain the top 1 mm of cartilage with intact superficial zone. Cartilage disks for all treatment groups were matched for depth and location along the joint surface. They were equilibrated in serum free medium (low glucose Dulbecco's Modified Eagle's Medium [DMEM; 1 g/L]) supplemented with 10 mM HEPES buffer, 0.1 mM nonessential amino acids, 0.4 mM proline, […] ascorbic acis, 100 units/ml penicillin G, 100 µg/ml streptomycin and […] amphotericin B (all from Sigma Aldrich, MO) for 48 h in a 5% CO2 incubator at 37° C. prior to any treatment. […] The medium was changed every 2 days without replenishing Avidin. This simulated the in-vivo condition of one time Avidin injection. The experiment was conducted for three time periods: 2, 4 and 10 days. Upon termination of culture at these time points, 100-200 μm thick slices were cut from the center of disks from each treatment condition. The slices were immediately stained for 2-3 minutes in the dark with fluorescein diacetate (FDA; 4 mg/ml in PBS) and propidium iodide (PI; 40 mg/ml in PBS) (both from Sigma Aldrich, MO). FDA was used to stain the viable cells green, while PI stained the non-viable cells red. The slices were washed with PBS and then imaged using Nikon fluorescence microscope with a 4× objective. Two days before the termination of culture of day 4 and day 10 experiments, the medium was supplemented with 5 μCi/mL [^35S]-sulfate and 10 μCi/mL [^3H]-proline (both from PerkinElmer, Norwalk, Conn.). […] The wet weight was measured for each disk and then digested with proteinase K (Roche, Indianapolis, Minn.) overnight. The cumulative sGAG content in the medium and digested explants was measured using the DMMB assay. The amount of radiolabel in each digested sample and medium standards (^35S and ^3H) were measured using a liquid scintillation counter. Radiolabeled concentration was calculated from the standards and then normalized to the wet weight.

[5] = dilute solution of DI water at pH 5; cited from earlier work

Avidin: positively charged globular glycosylated tetrameric protein, pI 10.5, 66 kDa, diameter ~7 nm (Invitrogen); SEQ ID NO 1
knee joint inflammation (swelling, stiffness) after i.a. injection ([1]; 6 h, 1 d, 4 d and 7 d): did not present any signs of swelling or joint stiffness | concentration in articular cartilage as percent of 24 h value ([1]; 4 days): 10.3% | concentration in articular cartilage as percent of 24 h value ([1]; 7 days): 4.1% | Half-life ([1]; Cartilage): 29.0 h | Half-life ([1]; Ligament): 25.7 h | Half-life ([1]; Meniscus): 21.4 h | Half-life ([1]; Patella Tendon): 16.9 h | Half-life ([1]; Quadriceps Tendon): 27.2 h | detection in the femoral bone ([1]; any time point): Neither Avidin nor Neutravidin was detected | time to diffuse through the full thickness of joint tissues after i.a. injection ([1]; cartilage, menisci, ligaments, tendons, confocal): ≤ 6 h | dwell time inside the joint ([1]; rat knee): 7 days | mean concentration in articular cartilage ([1]; 6 h): 4.7 μg/mg tissue dry weight | mean concentration in articular cartilage ([1]; 24 h): 3.3 µg/mg | mean concentration in articular cartilage ([1]; 4 days): 0.34 µg/mg | mean concentration in articular cartilage ([1]; 7 days): 0.13 µg/mg | time to penetrate the full thickness (1 mm) of the cartilage explant [2]: ≤ 24 h | time lag τlag to achieve the steady state flux [3]: ~35 min | cumulative sGAG loss to medium vs untreated control ([4]; 100 nM and 1 μM, 4 and 10 days): no significant difference | cumulative sGAG loss to medium ([4]; 100 μM, 4 days): 14.6% | cumulative sGAG loss to medium ([4]; 100 μM, 10 days): 20% | increase in sGAG loss compared to untreated control ([4]; 100 μM, both 4 and 10 days): about 2 folds | rate of protein and sGAG synthesis ([4]; increasing dose 0-100 μM, last 48 h of culture): no significant changes | chondrocyte viability (live-dead fluorescence) ([4]; one time dose 0-100 μM, 2, 4 and 10 days): no significant difference in cell viability | safe dose ([4]; one time dose, bovine cartilage explants): at least 1 μM | zeta potential [5]: 10 mV
